B1: aIL2_1-SNV-N (other)
chain: LKEVQDNIGSSCPESYRFHSDRWSRNCCIPDSWDDSYVWNCDHYAVRPAIGSLKRELADL
notes: also called aIL2_1, SNV-N framework; not shown: His8, C-terminal, kept
B2: aIL2_1-BECN1 (other, bovine (knob domain))
chain: YQREYSEFKRQQLELDDELGSSCPESYRFHSDRWSRNCCIPDSWDDSYVWNCDHYAVRPAIGSLIQELEDVEKNRKIVAENL
notes: also called aIL2_1, BECN1 framework; not shown: His8, C-terminal, kept

Experiments:
human IL-2 [1] = target: T1, human IL-2 (human, UniProt P60568 21-153); assay: SPR; […], Biacore 8K+; […]; HBS-EP+; […]; details: both partners purified
T1 construct: The source is told for the ELISA; nothing else is said for the SPR
T1 sequence (P60568 21-153): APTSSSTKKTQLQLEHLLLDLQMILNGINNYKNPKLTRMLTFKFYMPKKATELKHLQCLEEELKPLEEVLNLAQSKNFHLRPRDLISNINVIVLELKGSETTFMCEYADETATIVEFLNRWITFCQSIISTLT

human IL-2 [2] = target: T1, human IL-2; assay: SPR; multicycle kinetics, Biacore 8K+; knob domain constructs immobilised on a CM5 chip via amine coupling, IL-2 in solution; HBS-EP+; two-state binding model, only the fastest association and the slowest dissociation rate constants reported; details: both partners purified

Row | Binder | Kd (human IL-2 [1]) [nM] | Kd (human IL-2 [2]) [nM]
1 | B1 | 9.4 | –
2 | B2 | – | 10.8

Source: article PMC11008599 (Frontiers in Immunology, 2024)
